According to patent US20070036786A1 (published 2007):

Biological target: T1, soluble human CD16A (sCD16A) (human, UniProt P08637 17-203)
T1 construct: CD16A truncated just prior to the transmembrane region, expressed in HEK-293; The last seven residues come from vector pCDNA3.1; also called soluble form of human CD16A
Assay: ELISA, captured sCD16A
Experimental: The plate was washed and dilutions of recombinant antibodies starting at 0.5 μg/ml in PBS-T-BSA were then added and incubated for 1 hr at room temp. Binding of recombinant antibodies to the captured sCD16A was then measured using an anti-human IgG-HRP conjugate and TMB substrate. After stopping color development using dilute sulfuric acid, the plate was read at 450 nm.

T1 sequence (P08637 other isoform, or with tags, fused parts or gaps limits assumed): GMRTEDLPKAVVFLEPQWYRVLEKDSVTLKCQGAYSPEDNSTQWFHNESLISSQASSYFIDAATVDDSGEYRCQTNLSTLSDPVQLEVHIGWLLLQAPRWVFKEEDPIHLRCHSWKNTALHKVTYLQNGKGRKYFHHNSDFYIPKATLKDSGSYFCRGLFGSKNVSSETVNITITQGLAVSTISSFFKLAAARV

Row | Binder | binding result
1 | hu3G8VH-1/hu3G8VL-1 (antibody, human IgG1, kappa, Heavy chain Hu3G8VH-1G1, light chain Hu3G8VL-1K; also called Hu3G8-1.1) heavy: not shown light: DIVMTQSPDSLAVSLGERATINCKASQSVDFDGDSFMNWYQQKPGQPPKLLIYTTSNLESGVPDRFSGSGSGTDFTLTISSLQAEDVAVYYCQQSNEDPYTFGQGTKLEIKRTVAAPSVFIFPPSDEQLKSGTASVVCLLNNFYPREAKVQWKVDNALQSGNSQESVTEQDSKDSTYSLSSTLTLSKADYEKHKVYACEVTHQGLSSPVTKSFNRGEC | binds
2 | hu3G8VH-20/hu3G8VL-1 (antibody, VH fused to human Cγ1 constant region) VH: QVTLRESGPALVKPTQTLTLTCTFSGFSLSTSGVGVGWIRQPPGKALEWLAHIWWDDDKRYSPSLKSRLTISKDTSKNQVVLTMTNMDPVDTATYYCARINPAWFAYWGQGTLVTVSS light: DIVMTQSPDSLAVSLGERATINCKASQSVDFDGDSFMNWYQQKPGQPPKLLIYTTSNLESGVPDRFSGSGSGTDFTLTISSLQAEDVAVYYCQQSNEDPYTFGQGTKLEIKRTVAAPSVFIFPPSDEQLKSGTASVVCLLNNFYPREAKVQWKVDNALQSGNSQESVTEQDSKDSTYSLSSTLTLSKADYEKHKVYACEVTHQGLSSPVTKSFNRGEC | binds
3 | hu3G8VH-4/hu3G8VL-1 (antibody, VH fused to human Cγ1 constant region) VH: QVTLRESGPALVKPTQTLTLTCTFSGFSLSTSGMGVGWIRQPPGKALEWLAHIWWDDDKRYNPALKSRLTISKDTSKNQVVLTMTNMDPVDTATYYCAQINPAWFDYWGQGTLVTVSS light: DIVMTQSPDSLAVSLGERATINCKASQSVDFDGDSFMNWYQQKPGQPPKLLIYTTSNLESGVPDRFSGSGSGTDFTLTISSLQAEDVAVYYCQQSNEDPYTFGQGTKLEIKRTVAAPSVFIFPPSDEQLKSGTASVVCLLNNFYPREAKVQWKVDNALQSGNSQESVTEQDSKDSTYSLSSTLTLSKADYEKHKVYACEVTHQGLSSPVTKSFNRGEC | binds
4 | hu3G8VH-18/hu3G8VL-1 (antibody, VH fused to human Cγ1 constant region) VH: QVTLRESGPALVKPTQTLTLTCTFSGFSLSTSGMGVGWIRQPPGKALEWLAHIWWDDDKRYNPALKSRLTISKDTSKNQVVLTMTNMDPVDTATYYCAHINPAWFAYWGQGTLVTVSS light: DIVMTQSPDSLAVSLGERATINCKASQSVDFDGDSFMNWYQQKPGQPPKLLIYTTSNLESGVPDRFSGSGSGTDFTLTISSLQAEDVAVYYCQQSNEDPYTFGQGTKLEIKRTVAAPSVFIFPPSDEQLKSGTASVVCLLNNFYPREAKVQWKVDNALQSGNSQESVTEQDSKDSTYSLSSTLTLSKADYEKHKVYACEVTHQGLSSPVTKSFNRGEC | binds
5 | hu3G8VH-2/hu3G8VL-1 (antibody, VH fused to human Cγ1 constant region) VH: QVTLKESGPALVKPTQTLTLTCTFSGFSLSTSGMGVGWIRQPPGKALEWLAHIWWDDDKRYNPALKSRLTISKDTSKNQVVLTMTNMDPVDTATYYCARINPAWFAYWGQGTLVTVSS light: DIVMTQSPDSLAVSLGERATINCKASQSVDFDGDSFMNWYQQKPGQPPKLLIYTTSNLESGVPDRFSGSGSGTDFTLTISSLQAEDVAVYYCQQSNEDPYTFGQGTKLEIKRTVAAPSVFIFPPSDEQLKSGTASVVCLLNNFYPREAKVQWKVDNALQSGNSQESVTEQDSKDSTYSLSSTLTLSKADYEKHKVYACEVTHQGLSSPVTKSFNRGEC | binds
6 | hu3G8VH-5/hu3G8VL-1 (antibody, VH fused to human Cγ1 constant region (glycosylated form); also called Hu3G8-5.1) VH: QVTLRESGPALVKPTQTLTLTCTFSGFSLSTSGMGVGWIRQPPGKALEWLAHIWWDDDKRYNPALKSRLTISKDTSKNQVVLTMTNMDPVDTATYYCAQINPAWFAYWGQGTLVTVSS light: DIVMTQSPDSLAVSLGERATINCKASQSVDFDGDSFMNWYQQKPGQPPKLLIYTTSNLESGVPDRFSGSGSGTDFTLTISSLQAEDVAVYYCQQSNEDPYTFGQGTKLEIKRTVAAPSVFIFPPSDEQLKSGTASVVCLLNNFYPREAKVQWKVDNALQSGNSQESVTEQDSKDSTYSLSSTLTLSKADYEKHKVYACEVTHQGLSSPVTKSFNRGEC | binds
7 | hu3G8VH-6/hu3G8VL-1 (antibody, VH fused to human Cγ1 constant region) VH: QVTLRESGPALVKPTQTLTLTCTFSGFSLSTSGVGVGWIRQPPGKALEWLAHIWWDDDKRYNPALKSRLTISKDTSKNQVVLTMTNMDPVDTATYYCARINPAWFDYWGQGTLVTVSS light: DIVMTQSPDSLAVSLGERATINCKASQSVDFDGDSFMNWYQQKPGQPPKLLIYTTSNLESGVPDRFSGSGSGTDFTLTISSLQAEDVAVYYCQQSNEDPYTFGQGTKLEIKRTVAAPSVFIFPPSDEQLKSGTASVVCLLNNFYPREAKVQWKVDNALQSGNSQESVTEQDSKDSTYSLSSTLTLSKADYEKHKVYACEVTHQGLSSPVTKSFNRGEC | binds

More lines, now with the values ahead:

Row | binding result | Binder
8 | binds | hu3G8VH-3/hu3G8VL-1 (antibody, VH fused to human Cγ1 constant region) VH: QVTLRESGPALVKPTQTLTLTCTFSGFSLRTSGMGVGWIRQPPGKALEWLAHIWWDDDKRYNPALKSRLTISKDTSKNQVVLTMTNMDPVDTATYYCARINPAWFAYWGQGTLVTVSS light: DIVMTQSPDSLAVSLGERATINCKASQSVDFDGDSFMNWYQQKPGQPPKLLIYTTSNLESGVPDRFSGSGSGTDFTLTISSLQAEDVAVYYCQQSNEDPYTFGQGTKLEIKRTVAAPSVFIFPPSDEQLKSGTASVVCLLNNFYPREAKVQWKVDNALQSGNSQESVTEQDSKDSTYSLSSTLTLSKADYEKHKVYACEVTHQGLSSPVTKSFNRGEC
9 | binds | hu3G8VH-19/hu3G8VL-1 (antibody, VH fused to human Cγ1 constant region) VH: QVTLRESGPALVKPTQTLTLTCTFSGFSLSTSGMGVGWIRQPPGKALEWLAHIWWDDDKRYNPALKSRLTISKDTSKNQVVLTMTNMDPVDTATYYCAQINPAYFAYWGQGTLVTVSS light: DIVMTQSPDSLAVSLGERATINCKASQSVDFDGDSFMNWYQQKPGQPPKLLIYTTSNLESGVPDRFSGSGSGTDFTLTISSLQAEDVAVYYCQQSNEDPYTFGQGTKLEIKRTVAAPSVFIFPPSDEQLKSGTASVVCLLNNFYPREAKVQWKVDNALQSGNSQESVTEQDSKDSTYSLSSTLTLSKADYEKHKVYACEVTHQGLSSPVTKSFNRGEC
10 | binds | hu3G8VH-12/hu3G8VL-1 (antibody, VH fused to human Cγ1 constant region) VH: QVTLRESGPALVKPTQTLTLTCTFSGFSLSTSGMGVGWIRQPPGKALEWLAHIWWDDDKRYSPSLKSRLTISKDTSKNQVVLTMTNMDPVDTATYYCARINPAWFAYWGQGTLVTVSS light: DIVMTQSPDSLAVSLGERATINCKASQSVDFDGDSFMNWYQQKPGQPPKLLIYTTSNLESGVPDRFSGSGSGTDFTLTISSLQAEDVAVYYCQQSNEDPYTFGQGTKLEIKRTVAAPSVFIFPPSDEQLKSGTASVVCLLNNFYPREAKVQWKVDNALQSGNSQESVTEQDSKDSTYSLSSTLTLSKADYEKHKVYACEVTHQGLSSPVTKSFNRGEC
11 | binds | hu3G8VH-23/hu3G8VL-1 (antibody, VH fused to human Cγ1 constant region) VH: QVTLRESGPALVKPTQTLTLTCTFSGFSLSTSGVGVGWIRQPPGKALEWLAHIWWDDDKRYSPSLKSRLTISKDTSKNQVVLTMTNMDPVDTATYYCAKINPAYFAYWGQGTLVTVSS light: DIVMTQSPDSLAVSLGERATINCKASQSVDFDGDSFMNWYQQKPGQPPKLLIYTTSNLESGVPDRFSGSGSGTDFTLTISSLQAEDVAVYYCQQSNEDPYTFGQGTKLEIKRTVAAPSVFIFPPSDEQLKSGTASVVCLLNNFYPREAKVQWKVDNALQSGNSQESVTEQDSKDSTYSLSSTLTLSKADYEKHKVYACEVTHQGLSSPVTKSFNRGEC
12 | binds | hu3G8VH-8/hu3G8VL-1 (antibody, VH fused to human Cγ1 constant region) VH: QVTLRESGPALVKPTQTLTLTCTFSGFSLSTSGMGVGWIRQPPGKALEWLAHIWWDDDKRYNPALKSRLTISKDTSKNQVVLTMTNMDPVDTATYYCARINPAYFAYWGQGTLVTVSS light: DIVMTQSPDSLAVSLGERATINCKASQSVDFDGDSFMNWYQQKPGQPPKLLIYTTSNLESGVPDRFSGSGSGTDFTLTISSLQAEDVAVYYCQQSNEDPYTFGQGTKLEIKRTVAAPSVFIFPPSDEQLKSGTASVVCLLNNFYPREAKVQWKVDNALQSGNSQESVTEQDSKDSTYSLSSTLTLSKADYEKHKVYACEVTHQGLSSPVTKSFNRGEC
13 | binds | hu3G8VH-17/hu3G8VL-1 (antibody, VH fused to human Cγ1 constant region) VH: QVTLRESGPALVKPTQTLTLTCTFSGFSLSTSGMGVGWIRQPPGKALEWLAHIWWDDDKRYNPALKSRLTISKDTSKNQVVLTMTNMDPVDTATYYCAAINPAWFAYWGQGTLVTVSS light: DIVMTQSPDSLAVSLGERATINCKASQSVDFDGDSFMNWYQQKPGQPPKLLIYTTSNLESGVPDRFSGSGSGTDFTLTISSLQAEDVAVYYCQQSNEDPYTFGQGTKLEIKRTVAAPSVFIFPPSDEQLKSGTASVVCLLNNFYPREAKVQWKVDNALQSGNSQESVTEQDSKDSTYSLSSTLTLSKADYEKHKVYACEVTHQGLSSPVTKSFNRGEC
14 | binds | hu3G8VH-14/hu3G8VL-1 (antibody, VH fused to human Cγ1 constant region) VH: QVTLRESGPALVKPTQTLTLTCTFSGFSLSTSGMGVGWIRQPPGKALEWLAHIWWNDDKRYNPALKSRLTISKDTSKNQVVLTMTNMDPVDTATYYCARINPAWFAYWGQGTLVTVSS light: DIVMTQSPDSLAVSLGERATINCKASQSVDFDGDSFMNWYQQKPGQPPKLLIYTTSNLESGVPDRFSGSGSGTDFTLTISSLQAEDVAVYYCQQSNEDPYTFGQGTKLEIKRTVAAPSVFIFPPSDEQLKSGTASVVCLLNNFYPREAKVQWKVDNALQSGNSQESVTEQDSKDSTYSLSSTLTLSKADYEKHKVYACEVTHQGLSSPVTKSFNRGEC
15 | binds | hu3G8VH-16/hu3G8VL-1 (antibody, VH fused to human Cγ1 constant region) VH: QVTLRESGPALVKPTQTLTLTCTFSGFSLSTSGMGVGWIRQPPGKALEWLAHIWWDDDKRYNPALKSRLTISKDTSKNQVVLTMTNMDPVDTATYYCAKINPAWFAYWGQGTLVTVSS light: DIVMTQSPDSLAVSLGERATINCKASQSVDFDGDSFMNWYQQKPGQPPKLLIYTTSNLESGVPDRFSGSGSGTDFTLTISSLQAEDVAVYYCQQSNEDPYTFGQGTKLEIKRTVAAPSVFIFPPSDEQLKSGTASVVCLLNNFYPREAKVQWKVDNALQSGNSQESVTEQDSKDSTYSLSSTLTLSKADYEKHKVYACEVTHQGLSSPVTKSFNRGEC
16 | binds | hu3G8VH-24/hu3G8VL-1 (antibody, VH fused to human Cγ1 constant region) VH: QVTLRESGPALVKPTQTLTLTCTFSGFSLSTSGVGVGWIRQPPGKALEWLAHIWWDDDKRYSPSLKSRLTISKDTSKNQVVLTMTNMDPVDTATYYCAAINPAYFAYWGQGTLVTVSS light: DIVMTQSPDSLAVSLGERATINCKASQSVDFDGDSFMNWYQQKPGQPPKLLIYTTSNLESGVPDRFSGSGSGTDFTLTISSLQAEDVAVYYCQQSNEDPYTFGQGTKLEIKRTVAAPSVFIFPPSDEQLKSGTASVVCLLNNFYPREAKVQWKVDNALQSGNSQESVTEQDSKDSTYSLSSTLTLSKADYEKHKVYACEVTHQGLSSPVTKSFNRGEC
